The text below walks through data of patent publication US20050147610A1.

Assay [1] has as its target NEM-huIL-18 (recombinant mature human IL-18 treated with N-ethyl maleiamide) (human) (UniProt Q14116). As to the kind of experiment: cell-based or functional assay.
In assay [2] the target is natural human IL-18 (endogenous, human whole blood) (human) (UniProt Q14116). As to the kind of experiment: cell-based or functional assay.
Assay [3] has as its target recombinant mature human IL-18 (preparation not specified) (human) (UniProt Q14116). As to the kind of experiment: cell-based or functional assay.
Assay [4] has as its target (4C/A)-huIL-18 (4C/A mutant of mature human IL-18) (human) (UniProt Q14116). As to the kind of experiment: BIACORE. A general note: In SPR one partner is held on a chip, and binding of the other changes the refractive index at the surface.
For assay [5], the target named is NEM-huIL-18 (recombinant mature human IL-18 treated with N-ethyl maleiamide) (human) (UniProt Q14116). As to the kind of experiment: Biacore.
Assay [6] concerns the target (4C/A)-huIL-18 (4C/A mutant of mature human IL-18) (human) (UniProt Q14116). As to the kind of experiment: Biacore.
The target of assay [7] is 125I labeled rhu-IL-18 (human) (UniProt Q14116). As to the kind of experiment: RBA: inhibition of 125I-rhu-IL-18 binding to IL-18Rαβ on KG-1 cells.

Some results are limits rather than exact numbers.

B1: 268 (antibody, V domains shown)
VH: ZVQLVESGGGVVQPGRSLRLSCAASGFTFRNYGLHWVRQAPGKGLEWVAVIWYDGSNKYYADSVKGRFTISRDNSKNTLYLQMNSLRAEDTAVYYCARESYYYYGMDVWGQGTTVTVSS
VL: EIVMTQSPATLSVSPGERATLSCRASQSFNSNLVWYQQKPGQAPRLLIYGASTRATGIPARFSGSGSGTEFTLTISSLQSEDFAVYYCQQYNNWTWTFGQGTKVEIKR
For the molecule B1, in assay [1], the KG-1 Assays (IC50, M), NEM-rhuIL-18 came out at 7e-09 M.

B2: Murine anti-human IL-18 mAb (125-2H) (antibody, from another filing, V domains shown)
VH: EIQLQQSGPELVKPGASVKVSCKASGYSFTDYFIYWVKQSHGKSLEWIGDIDPYNGDTSYNQKFRDKATLTVDQSSTTAFMHLNSLTSEDSAVYFCARGLRFWGQGTLVTVSA
VL: DIQMTQSPSSLSASLGERVSLTCRASQDIGSKLYWLQQEPDGTFKRLIYATSSLDSGVPKRFSGSRSGSDYSLTISSLESEDFVDYYCLQYASSPYTFGGGTKLAIKR
Consider B2, for which the WBA, Neutralization Potency in vitro (IC50, nM) in assay [2] amounted to 3 nM. Also, the KG-1, Neutralization Potency in vitro (IC50, nM) in assay [3] was determined as 0.2 nM. In assay [4], this molecule yielded a Kd of 0.55 nM, a koff of 0.00011 s⁻¹ and a kon of 190000 M⁻¹ s⁻¹. Moreover, the Kd in assay [5] amounted to 0.2 nM. In assay [6], this molecule returned a Kd of 0.2 nM. In assay [7], this molecule showed an IC50 greater than 300 nM.

For orientation: Kd means the equilibrium constant for the complex coming apart. Broadly, the koff is the rate constant with which the complex falls apart. Higher therefore signals fast dissociation. The kon is the second-order rate constant of association. Read a high kon as fast association. The term IC50 denotes the concentration at which inhibition is half-maximal.
